Experimental data: patent US8557971B2, “Chimeric viral envelopes” (Aarhus Universitet, priority 2006, dated 2013)
Positions count from the first letter of the chain named.

Key:
[1] = molecular target: polytropic Xpr1 receptor on NIH3T3 murine cells (murine, UniProt Q9Z0U0); assay: cell-based or functional assay
APJ = APJ (Homo sapiens (Human), UniProt P35414); assay: cell-based or functional assay
NIH 3T3 MCF 247 = assay: Titer on NIH 3T3 cells infected with MCF 247 (blocked polytropic receptor); type: cell-based, mouse; details: Titer Experiment 1; NIH 3T3 infected with MCF 247
Protocol: FIG. 24. The SL3-2 chimeric envelopes can use two different receptors. […] NIH3T3: Murine cells, NIH3T3+MCF247: murine cells infected with MCF247, thus having a blocked polytropic receptor, D17: Dog cells, D17-APJ: Dog cells expressing APJ, D17-APJ-6 uM Apelin 13: Dog cells expressing APJ incubated with 6 uM apelin-13 peptide for 1 h.
(§1) Transfections were done by calcium phosphate precipitation method, described by Graham and van der Eb (Graham and van der Eb, 1973) leaving the calcium precipitate on the cells for 24 hours. 293T cells were transfected using 8 μg of envelope expression plasmid, 2 μg gagpol expression plasmid (Morita et al., 2000) and 1 μg of an EGFP expressing plasmid. EGFP was included as a visual aid to determine the success of transfections. Medium on the transfected cells was renewed every day until it was used for transduction, usually between 48 and 72 hours after transfection, depending on the number of green fluorescing cells.
(§2) The day before transduction, medium was changed from fetal calf serum to newborn calf serum containing medium. Semi-packaging cells (Bahrami et al., 2003) were seeded at concentration of 10^4 cells/cm^2 24 hours before transduction.
Supernatant from transfected cells was filtered (0.22μ). The supernatant with 6 μg/mL polybrene was added to the target cells. […]

NIH 3T3 = assay: Titer (transduction) of chimeric envelope constructs on NIH 3T3 cells; type: cell-based, mouse; details: Titer Experiment 1; NIH 3T3 mouse cells
Protocol: as §1, §2
(§3) Supernatant from transfected cells was filtered (0.22μ). The supernatant with 6 μg/mL polybrene was added to the target cells. 24 hours later, the infected cells were selected using medium described before containing 600 μg/mL G418 for 10 days.

D17 APJ = assay: Titer on D17 cells expressing APJ; type: cell-based, dog; details: for Titer, D17 APJ: Titer Experiment 1, D17 cells expressing APJ
Protocol: as §1, §2, §3
The ability of redirecting the retroviral fusion machinery to a desired receptor would have wide biotechnological and potentially also nanotechnological applications. However, the regulatory mechanisms that interconnect receptor binding with fusion are poorly understood, which has made intelligent engineering of the envelope protein difficult. […] Using the envelope protein of the SL3-2 murine leukemia virus isolate (Pedersen et al., 1981) as a backbone and insertion of the 13 amino acid peptide ligand apelin by structure based design, we achieved efficient membrane fusion in a manner dependent upon APJ, the receptor for apelin (Fan et al., 2003; Kawamata et al., 2001) (FIG. 12). APJ belongs to the large family of G-protein-coupled receptors (GPCRs) involved in cell signaling with more than 1000 members in man (Puffer et al., 2000). All GPCRs are characterized by having 7 transmembrane helices (7-TM). Some of the receptors respond to peptide ligands such as apelin. […]

D17 = assay: Titer on D17 dog cells; type: cell-based; details: for Titer, D17: Titer Experiment 1, D17 dog cells
Protocol: as §1, §2, §3

human cells = assay: Infection of human cells; type: cell-based; details: qualitative

B1: SL3-2/apelin chimeric envelope peptide, "Apelin@155 RT" (other)
chain: VQHDSPHQVFNVTWRVTNLMTGQTANATSLLGTMTDAFPKLYFDLCDLIGDDWDETGLGCRTPGGRKRARIFDFYVCPGHTVLAGCGGPREGYCGKWGCETTGQAYWKPSSSWDLISLKRGNTQGIYQCSGGSGQRPRLSHKGPMPFSGGSGCGPCYDSSVVSSSAQGATPGGRCNPLVLEFTDAGKRASWDASKAWGLRLYRSTRTDPVTRFSLTRQVLNIGPRVPIGPNPVIIDQLPPSRPVQVMLPRPPQPPPPGAASTVPETAPPSQQPGTGDRLLNLVNGAYQALNLTSPDKTQECWLCLVAGPPYYEGVAVLGTYSNHTSAPANCSVASQHKLTLSEVTGQGLCVGAVPKTHQALCNTTQKTSNGSYYLAAPAGTIWACNTGLTPCLSTTVLDLTTDYCVLVELWPKVTYHSPGYVYGQFEEKTKYKREPVSLTLALLLGGLTMGGIAAGVGTGTTALVATQQFQQLQAAMQDDLKEVEKSITNLERSLTSLSEVVLQNRRGLDLLFLKEGGLCAALKEECCFYADHTGLVRDSMAKLRERLSQRQKLFESQQGWFEGLFNKSPWFTTLISTIMGPLIILLLILLFGPCILNHLVQFIKDRVSVVQALVLTQQYHQLKTIEDCESRE
[1]
  Titer on NIH 3T3 (Titer Experiment 1; unit not given): 500000
APJ
  Titer on D17 APJ (Titer Experiment 1; unit not given): 1750

B2: SL3-2/apelin chimeric envelope peptide, "Apelin@155 GI" (other)
chain: B1 chain with R206G, T207I
[1]
  Titer on NIH 3T3 (Titer Experiment 1; unit not given): 750000
APJ
  Titer on D17 APJ (Titer Experiment 1; unit not given): 400

B3: SL3-2/apelin chimeric envelope polypeptide 'AP165 RT' (other)
chain: VQHDSPHQVFNVTWRVTNLMTGQTANATSLLGTMTDAFPKLYFDLCDLIGDDWDETGLGCRTPGGRKRARIFDFYVCPGHTVLAGCGGPREGYCGKWGCETTGQAYWKPSSSWDLISLKRGNTPKGQGPCYDSSGGSGQRPRLSHKGPMPFSGGSGSSSAQGATPGGRCNPLVLEFTDAGKRASWDASKAWGLRLYRSTRTDPVTRFSLTRQVLNIGPRVPIGPNPVIIDQLPPSRPVQVMLPRPPQPPPPGAASTVPETAPPSQQPGTGDRLLNLVNGAYQALNLTSPDKTQECWLCLVAGPPYYEGVAVLGTYSNHTSAPANCSVASQHKLTLSEVTGQGLCVGAVPKTHQALCNTTQKTSNGSYYLAAPAGTIWACNTGLTPCLSTTVLDLTTDYCVLVELWPKVTYHSPGYVYGQFEEKTKYKREPVSLTLALLLGGLTMGGIAAGVGTGTTALVATQQFQQLQAAMQDDLKEVEKSITNLERSLTSLSEVVLQNRRGLDLLFLKEGGLCAALKEECCFYADHTGLVRDSMAKLRERLSQRQKLFESQQGWFEGLFNKSPWFTTLISTIMGPLIILLLILLFGPCILNHLVQFIKDRVSVVQALVLTQQYHQLKTIEDCESRE
[1]
  Titer on NIH 3T3 (Titer Experiment 1; unit not given): 3e+06
APJ
  Titer on D17 APJ (Titer Experiment 1; unit not given): 2.5e+06

B4: SL3-2/apelin chimeric envelope AP@165 GI (other)
chain: B3 chain with R200G, T201I
NIH 3T3 MCF 247
  Titer, NIH 3T3 MCF 247: 0
NIH 3T3
  Titer, NIH 3T3: 4 × 10^6
D17 APJ
  Titer, D17 APJ: 1.25 × 10^6
[1]
  Titer on NIH 3T3 (Titer Experiment 1; unit not given): 4e+06
APJ
  Titer on D17 APJ (Titer Experiment 1; unit not given): 1.25e+06
D17
  Titer, D17: 1.25 × 10^1

B5: AP@155: SL3-2 envelope with apelin inserted at position 155 (variant not specified) (protein)
chain: B1 chain with R206G, T207I
D17 APJ; qualitative, FIG. 12
  APJ-dependent entry / membrane fusion into D17 dog cells: suboptimal relative to AP@165

B6: SL3-2GI (protein)
chain: VQHDSPHQVFNVTWRVTNLMTGQTANATSLLGTMTDAFPKLYFDLCDLIGDDWDETGLGCRTPGGRKRARIFDFYVCPGHTVLAGCGGPREGYCGKWGCETTGQAYWKPSSSWDLISLKRGNTPKGQGPCYDSSVVSSSAQGATPGGRCNPLVLEFTDAGKRASWDASKAWGLRLYRSTGIDPVTRFSLTRQVLNIGPRVPIGPNPVIIDQLPPSRPVQIMLPRPPQPPPPGAASTVPETAPPSQQPGTGDRLLNLVNGAYQALNLTSPDKTQECWLCLVAGPPYYEGVAVLGTYSNHTSAPANCSVASQHKLTLSEVTGQGLCVGAVPKTHQALCNTTQKTSNGSYYLAAPAGTIWACNTGLTPCLSTTVLDLTTDYCVLVELWPKVTYHSPGYVYGQFEEKTKYKREPVSLTLALLLGGLTMGGIAAGVGTGTTALVATQQFQQLQAAMQDDLKEVKKSITNLERSLTSLSEVVLQNRRGLDLLFLKEGGLCAALKEECCFYADHTGLVRDSMAKLRERLSQRQKLFESQQGWFEGLFNKSPWFTTLISTIMGPLIILLLILLFGPCILNHLVQFIKDRVSVVQALVLTQQYHQLKTIEDCESRE
Human cells
  Infection of human cells: infects human cells
D17; qualitative
  Infection of dog cells: not dog cells

B7: 155GI (protein)
chain: B1 chain with R206G, T207I
NIH 3T3 MCF 247
  Titer, NIH 3T3 MCF 247: 0.25 × 10^1
NIH 3T3
  Titer, NIH 3T3: 7.5 × 10^5
D17 APJ
  Titer, D17 APJ: 4 × 10^2
D17
  Titer, D17: 2.5
